Data from PMC7970798 (Computational and Structural Biotechnology Journal, 2021).
Like-named read-outs stand apart in the source and are kept apart here. No end group written: not given here. *: point of attachment. Biotin = O=C1N[C@H]2[C@H](CS[C@H]2CCCCC(=O)*)N1

T1: PDZ domain of wild type human PALS1 protein (human, UniProt Q8N3R9 256-336)
T1 sequence: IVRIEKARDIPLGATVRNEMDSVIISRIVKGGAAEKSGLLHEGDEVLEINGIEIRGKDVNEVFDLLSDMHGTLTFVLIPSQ

B1: CRB1 C-terminal tetradecapeptide (endogenous PALS1 ligand) (peptide)
peptide: Biotin-MWNLMPPPAMERLI

How the values were obtained:
Experiment in all cases: SPR
[1] = biological target: T1, PDZ domain of wild type human PALS1 …
[2] = biological target: T1, PDZ domain of wild type human PALS1 …; remark: listed apart in the source
[3] = biological target: B1

Binder | Kd [2] [µM] | other results
B1 |  | Kd [1]: 5.11 µM
Biotin-VKNLNSSRVPDLLV [SARS-CoV-2 envelope E protein C-terminal tetradecapeptide] | 63 | 
[change] variant of the PDZ domain of PALS1 (domain or fragment) IVRIEKARDIPLGATVRNEMDSVIISRIVKGGAAEKSGLLHEGDEVLEINGIEIRGKDVNEVWDLLSDMHGTLTFVLIPSQ |  | Kd [3]: 18 µM
KNLNSSEGVPDLLV [SARS-CoV-1 envelope E protein C-terminal tetradecapeptide] | > 500 | 
